Results taken from patent publication US20250171555A1 (VISTERRA, published 2025).
Where a chain is given by its changes, count along the chain named.

B1: c2139 (antibody, human IgG4 S228P, kappa)
heavy: not shown
light: DVQMTQSPSSLSASVGDRVTITCRASQSIVHSNGNTYLHWYQQKPGKAPKFLIYKVSNRFSGVPSRFSGSGSGTDFTLTISSLQPEDFATYYCAQYTLVPLTFGQGTKLEIKRTVAAPSVFIFPPSDEQLKSGTASVVCLLNNFYPREAKVQWKVDNALQSGNSQESVTEQDSKDSTYSLSSTLTLSKADYEKHKVYACEVTHQGLSSPVTKSFNRGEC
notes: also called humanized Site II antibody; monospecific C5aR1 antibody
B2: c2137-e1711 (bispecific antibody, human IgG4 S228P, kappa)
heavy: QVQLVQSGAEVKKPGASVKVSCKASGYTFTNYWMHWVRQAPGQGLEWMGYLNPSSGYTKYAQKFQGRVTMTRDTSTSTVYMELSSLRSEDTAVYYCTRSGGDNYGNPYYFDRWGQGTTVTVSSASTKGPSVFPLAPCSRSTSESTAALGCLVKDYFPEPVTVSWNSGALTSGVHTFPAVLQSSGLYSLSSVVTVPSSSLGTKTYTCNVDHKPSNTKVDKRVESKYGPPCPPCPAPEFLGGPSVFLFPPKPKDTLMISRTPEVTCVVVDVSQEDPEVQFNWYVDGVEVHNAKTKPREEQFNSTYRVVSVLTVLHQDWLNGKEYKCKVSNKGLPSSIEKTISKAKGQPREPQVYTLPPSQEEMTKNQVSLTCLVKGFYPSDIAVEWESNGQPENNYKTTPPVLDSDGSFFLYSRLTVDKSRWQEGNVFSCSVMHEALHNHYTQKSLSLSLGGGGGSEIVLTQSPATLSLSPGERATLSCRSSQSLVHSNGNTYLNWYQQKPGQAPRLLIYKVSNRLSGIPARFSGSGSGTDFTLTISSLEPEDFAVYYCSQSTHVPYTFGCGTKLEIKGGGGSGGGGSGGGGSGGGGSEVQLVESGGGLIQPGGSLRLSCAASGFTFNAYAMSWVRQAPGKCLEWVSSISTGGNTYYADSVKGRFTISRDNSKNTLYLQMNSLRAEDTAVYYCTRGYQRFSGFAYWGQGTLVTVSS
light: B1 light with Y96S
notes: Tetravalent Fab-Fc-linker-scFv; also called humanized biparatopic antibody; biparatopic C5aR1 antibody
B3: c2137-e1711-Fcmod (bispecific antibody, human IgG4 S228P, kappa)
heavy: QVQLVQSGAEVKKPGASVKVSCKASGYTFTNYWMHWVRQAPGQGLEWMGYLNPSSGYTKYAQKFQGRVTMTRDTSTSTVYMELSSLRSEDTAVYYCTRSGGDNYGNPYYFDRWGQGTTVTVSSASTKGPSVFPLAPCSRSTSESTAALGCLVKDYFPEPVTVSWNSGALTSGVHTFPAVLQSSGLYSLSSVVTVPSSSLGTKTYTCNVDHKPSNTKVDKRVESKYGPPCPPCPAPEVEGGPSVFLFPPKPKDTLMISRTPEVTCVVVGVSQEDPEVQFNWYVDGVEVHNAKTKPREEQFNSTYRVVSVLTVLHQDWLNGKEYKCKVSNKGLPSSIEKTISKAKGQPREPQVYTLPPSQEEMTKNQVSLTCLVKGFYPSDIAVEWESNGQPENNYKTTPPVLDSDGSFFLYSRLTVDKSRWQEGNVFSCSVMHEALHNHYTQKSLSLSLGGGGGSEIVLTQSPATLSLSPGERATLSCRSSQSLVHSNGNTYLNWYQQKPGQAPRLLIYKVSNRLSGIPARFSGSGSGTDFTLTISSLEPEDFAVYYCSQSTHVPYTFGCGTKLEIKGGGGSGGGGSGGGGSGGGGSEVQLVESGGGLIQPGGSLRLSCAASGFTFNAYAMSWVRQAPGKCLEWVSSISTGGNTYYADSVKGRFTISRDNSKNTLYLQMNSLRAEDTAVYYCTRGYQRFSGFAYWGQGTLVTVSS
light: B1 light with Y96S
notes: Fab-Fc-linker-scFv; also called biparatopic antibody with modified Fc domain
B4: c2139-Fcmod (antibody, human IgG4 S228P, kappa)
heavy: not shown
light: B1 light
notes: also called c2139-Fmod; monospecific antibody with modified Fc domain

Assays:
C5aR2 VLP [1] = biological target: T1, C5aR2 VLP (UniProt Q9P296 1-337); assay: ELISA, C5aR2 VLP immobilized at 30 µg/mL, antibody titrated
C5aR2 VLP [2] = biological target: T1, C5aR2 VLP; assay: ELISA, C5aR2 VLP immobilized, as in Example 1

T1 sequence (Q9P296 whole entry): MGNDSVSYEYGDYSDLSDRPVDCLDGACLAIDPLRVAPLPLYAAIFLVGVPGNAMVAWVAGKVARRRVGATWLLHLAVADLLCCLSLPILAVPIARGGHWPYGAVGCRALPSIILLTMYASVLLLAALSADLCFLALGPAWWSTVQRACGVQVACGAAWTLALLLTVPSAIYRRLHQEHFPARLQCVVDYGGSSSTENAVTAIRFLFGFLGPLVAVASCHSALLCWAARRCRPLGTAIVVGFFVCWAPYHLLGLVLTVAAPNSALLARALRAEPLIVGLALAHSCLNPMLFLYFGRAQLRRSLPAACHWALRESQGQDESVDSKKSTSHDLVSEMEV

Row | Binder | binding result (C5aR2 VLP [1]) | binding result (C5aR2 VLP [2])
1 | B1 | no binding | –
2 | B2 | no binding | –
3 | B3 | – | no binding
4 | B4 | – | no binding
